Target: Tn5 transposase (UniProt Q46731 Q46731:1-476)
Assay: free adaptor added to Tn5 in fixed cells; integration with 5 mM MgCl2, 37 C; binding not measured separately
Settings: chain copies: 2; partial duplex with 5' overhang
Description: Subsequently, TN5 transposase was added to the sample at a concentration of 85 μg/mL, and incubated at room temperature for 10 minutes. Thereby, transposase was bound to the transposase-binding sequence in the DNA fragment labeled to the nucleic acid-labeled secondary antibody.
Subsequently, a free DNA fragment (hereinafter, referred to as “oligo3-4”) having a transposase-binding sequence was added to the sample, reacted at room temperature for 1 hour, and then washed with PBS. The oligo3-4 was obtained by annealing a DNA fragment having a base sequence described in the Seq ID No. 3 and a DNA fragment having a base sequence described in the Seq ID No. 4. A double stranded DNA domain of the oligo3-4 was a binding sequence of TN5 transposase.

Chain of Tn5 transposase (Q46731 whole entry, one chain of several): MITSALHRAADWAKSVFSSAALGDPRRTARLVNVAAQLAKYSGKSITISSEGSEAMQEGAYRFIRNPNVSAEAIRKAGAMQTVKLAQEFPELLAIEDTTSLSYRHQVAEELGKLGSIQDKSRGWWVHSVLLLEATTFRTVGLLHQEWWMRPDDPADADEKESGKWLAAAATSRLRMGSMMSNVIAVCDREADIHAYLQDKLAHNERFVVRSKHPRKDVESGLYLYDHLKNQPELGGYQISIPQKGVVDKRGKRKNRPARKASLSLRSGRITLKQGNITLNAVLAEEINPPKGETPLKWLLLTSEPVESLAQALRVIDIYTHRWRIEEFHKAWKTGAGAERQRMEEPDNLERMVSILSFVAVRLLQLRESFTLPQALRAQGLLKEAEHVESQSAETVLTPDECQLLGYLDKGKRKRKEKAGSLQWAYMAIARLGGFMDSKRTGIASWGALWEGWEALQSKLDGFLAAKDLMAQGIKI

B1: oligo3-4 free Tn5 adaptor (mixed)
DNA 1: GTCTCGTGGGCTCGGAGATGTGTATAAGAGACAG
DNA 2: CTGTCTCTTATACACATCT
- binding result: binds

From patent US20200010853, “METHOD FOR INSERTING DESIRED DNA FRAGMENT INTO SITE LOCATED ADJACENT TO BINDING DOMAIN OF DNA-BINDING PROTEIN” (KYUSHU UNIVERSITY, NATIONAL UNIVERSITY CORPORATION, published 2020)
